In paper PMC3404820 one finds stoichiometry N (chains per micelle) data, which are given here for one molecule.

For the assay, the target named is amphiphilic diblock polypeptide (ADP) derived from elastin-mimetic sequences, unlabeled. The assay can be described thus: dynamic light scattering.

B1: amphiphilic diblock polypeptide (ADP) derived from elastin-mimetic sequences, unlabeled (protein)
chain: VPGVGVPGEGVPGVGVPGEGVPGVGVPGVGVPGEGVPGVGVPGEGVPGVGVPGVGVPGEGVPGVGVPGEGVPGVGVPGVGVPGEGVPGVGVPGEGVPGVGVPGVGVPGEGVPGVGVPGEGVPGVGVPGVGVPGEGVPGVGVPGEGVPGVGVPGVGVPGEGVPGVGVPGEGVPGVGVPGVGVPGEGVPGVGVPGEGVPGVGVPGVGVPGEGVPGVGVPGEGVPGVGVPGVGVPGEGVPGVGVPGEGVPGVGIPGVGIPGVGVPGYGIPGVGIPGVGIPGVGIPGVGVPGYGIPGVGIPGVGIPGVGIPGVGVPGYGIPGVGIPGVGIPGVGIPGVGVPGYGIPGVGIPGVGIPGVGIPGVGVPGYGIPGVGIPGVGIPGVGIPGVGVPGYGIPGVGIPGVGIPGVGIPGVGVPGYGIPGVGIPGVGIPGVGIPGVGVPGYGIPGVGIPGVGIPGVGIPGVGVPGYGIPGVGIPGVGIPGVGIPGVGVPGYGIPGVGIPGVGIPGVGIPGVGVPGYGIPGVGIPGVGIPGVGIPGVGVPGYGIPGVGIPGVGIPGVGIPGVGVPGYGIPGVGIPGVGIPGVGIPGVGVPGYGIPGVGIPGVGIPGVGIPGVGVPGYGIPGVGIPGVG
modifications: not checked
With B1, the stoichiometry N (chains per micelle) amounted to 106.
